Several values for one entry are separate records, joined by “and”; a condition that tells them apart may be missing. Identical values can stand only once.
Assays:
Assay type in all cases: biochemical
M. lysodeikticus = assay: Bacteriolytic activity of secreted human lysozyme; conditions: Table 3; for Bacteriolytic activity: culture supernatant, clones 1 to 3, 10 minutes at room temperature, absorbance at 450 nm; for Specific activity: per total amount of protein in culture supernatant, clones 1 to 3
Text: The expression vector for the aMF secretory signal-fused hLyz gene, onaP21808, was introduced into the ona01206 strain into which no chaperone combination was introduced, a strain that constitutively expresses a combination of O. minuta-derived chaperone genes; i.e., OmPDI1, OmERO1, and OmKar2, (i.e., the ona44607 strain), and a strain that constitutively expresses a combination of human-derived chaperone genes; i.e., synthetic hPDI, synthetic hERO1-Lβ, and synthetic hGRP78, (i.e., the ona68908 strain). Three clones were arbitrarily selected from the resulting colonies and cultured.
Also, bacteriolytic activity was assayed in the following manner. Bacteria of M. lysodeikticus was used as a substrate, and it was suspended in 50 mM phosphate buffer to prepare a substrate solution with a concentration of 0.16 mg/ml. To 240 μl of this substrate solution, 10 μl of a culture supernatant (the secreted human lysozyme) was added, and the mixture was incubated at room temperature for 10 minutes. Thereafter, the absorbance at 450 nm was assayed. […] Thus, a unit of lysozyme activity was defined as the amount of an enzyme that is necessary for the absorbance at 450 nm to be lowered by 0.001 per minute. Also, the total amount of proteins in the culture supernatant was assayed using the DC protein assay kit II (Bio-Rad, 500-0112JA) using bovine serum albumin as the standard.

[1] = molecular target: T1, human alpha-2,3-sialic acid transferase (ST3GalI) (Homo sapiens, UniProt Q11201); assay: Sialic acid transferase (ST3GalI) enzyme activity assay of crude enzyme solution, HPLC, core 1-pNP substrate; conditions: for Specific activity: Table 1, culture supernatant equivalent to 10 μU, EndoHf treated, Western blot signal intensity; for Activity: Table 2, culture supernatant, assayed with the elapse of time
T1 construct: The catalyst domain of the ST3GalI gene was first amplified via PCR; His6 (N); made in house; host or cells: Ogataea minuta TK10-1-2 derived strains (YT-2 to YT-7), with or without co-expressed O. minuta chaperones; culture supernatant used as crude enzyme
T1 sequence (Q11201 35-340 limits assumed): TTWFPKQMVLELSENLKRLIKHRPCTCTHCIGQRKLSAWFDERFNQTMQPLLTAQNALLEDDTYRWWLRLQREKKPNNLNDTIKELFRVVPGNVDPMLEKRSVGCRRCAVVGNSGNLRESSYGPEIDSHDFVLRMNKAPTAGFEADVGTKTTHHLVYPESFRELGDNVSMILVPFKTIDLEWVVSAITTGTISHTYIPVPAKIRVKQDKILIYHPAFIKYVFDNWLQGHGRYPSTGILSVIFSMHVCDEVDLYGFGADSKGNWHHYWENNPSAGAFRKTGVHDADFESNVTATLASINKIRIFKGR
Description: The YT-2 strain and the YT-3 strain were inoculated in 5 ml of YPAD+KCl medium (2% polypeptone, 1% yeast extract, 2% glucose, adenine (40 mg/l), 0.3 M potassium chloride), and preculture was carried out at 30° C. overnight. Subsequently, 1 ml of a preculture solution was inoculated in 150 ml of YPAD+KCl medium, and culture was carried out at 30° C. for 48 hours. The strains were recovered, resuspended in 100 ml of BMMY+2% casamino acid medium (1% yeast extract, 2% polypeptone, 1.34% Yeast Nitrogen Base without amino acids (Difco), 0.1 M KPi (pH 6.0), 2% casamino acid, 1% methanol), and cultured at 20° C. for 96 hours. Methanol was added to a concentration of 0.5% every 12 hours. After the completion of culture, the culture product was subjected to centrifugation to remove yeast cells, and the resulting solution was designated as a crude enzyme solution.
Enzyme activity was assayed in the following manner. A crude enzyme solution (2 μl) was added to 18 μl of a reaction solution (0.1 M Tris-HCl (pH 7.5), 1 mM MnCl2, 5 mM CMP-NeuAc, 50 μM core 1-pNP), and the reaction was initiated. After the reaction was carried out at 37° C. for 30 minutes, the reaction was terminated via boiling, and HPLC analysis was carried out. A Cosmosil 5C18-ARII column (4.6×250 mm, Nacalai Tesque, Inc.) was used, and a mixture of 0.2 M triethylamine-acetic acid (pH 7.0, solution A) and acetonitrile (solution B) (solution A:solution B=9:1) was used as a mobile phase. The column was equilibrated, the sample was injected therein, and elution was carried out 20 minutes thereafter. Detection was carried out using a UV detector (detection wavelength: 300 nm). A core1-pNP substrate was eluted 14.5 minutes later, and a reaction product, sialylcore1-pNP, was eluted 17 minutes later. The reaction product was quantified based on the peak area, and the result was designated as activity (U). The unit “1 U” was defined as the amount of an enzyme that is necessary to produce 1 μmol of the reaction product per minute.
Western blot analysis was then carried out. The culture supernatants in amounts equivalent to “10 μU” of the YT-2 strain and the YT-3 strain were subjected to treatment with EndoHf (NEB, P0703S) in accordance with the protocol, applied, and then subjected to SDS-PAGE. After electrophoresis, the product was transferred to a PVDF membrane, and Western blotting was carried out in accordance with a conventional technique. A mouse anti-FLAG M2 antibody (Sigma, F1804) was used as a primary antibody and an anti-mouse IgG antibody-alkaline phosphatase composite was used as a secondary antibody. Detection was carried out using CDP-Star and an image analyzer, LAS1000 (Fujifilm Corporation). Further, signals were quantified using Image Gauge (Fujifilm Corporation).
The expression vector for various chaperone gene combinations derived from O. minuta prepared in Example 4 was introduced into the YT-1 strain of Example 17. In the same manner as in Example 16, plasmids were cleaved with NotI to transform the YT-1 strain. After transformation, the resultant was applied on SD-Ura medium (2% glucose, 0.17% Yeast Nitrogen Base without amino acids (Difco), nucleic acid bases except for uracil, and amino acid mixture (20 to 400 mg/l)) and culture was carried out at 30° C. for 2 days. Whether or not the expression vector was incorporated into a chromosome was confirmed via colony PCR described in Example 5, an expressed strain having a coexpression vector (onaP09407) carrying two copies of the OmPDI1 expression cassette was designated as the YT-4 strain, an expressed strain having a coexpression vector (onaP09707) for OmPDI1 and OmKar2 was designated as the YT-5 strain, an expressed strain having a coexpression vector (onaP09507) for OmPDI1 and OmERO1 was designated as the YT-6 strain, and an expressed strain having a coexpression vector (onaP09607) for OmPDI1 and OmHSP104 was designated as the YT-7 strain. […]

[2] = molecular target: T1, human alpha-2,3-sialic acid transferase (ST3GalI); assay: as above; conditions: Table 2, 30 μl culture supernatant, Western blot signal intensity, with the elapse of time

“Ona44607: secreted human lysozyme sample from strain constitutively expressing OmPDI1, OmERO1, and OmKar2” was tested, and the Bacteriolytic activity (M. lysodeikticus) was 33.3 unit/ml and 34.0 unit/ml and the Specific activity (M. lysodeikticus) was 0.67 unit/mg and 0.65 unit/mg.

“Ona68908: secreted human lysozyme sample from strain expressing synthetic hPDI, synthetic hERO1-Lβ, and synthetic hGRP78” was tested, and the Bacteriolytic activity (M. lysodeikticus) was 36.0 unit/ml and 29.3 unit/ml and 33.3 unit/ml and the Specific activity (M. lysodeikticus) was 0.68 unit/mg and 0.61 unit/mg and 0.65 unit/mg.

With “Ona01206: secreted human lysozyme sample from strain into which no chaperone combination was introduced” the Bacteriolytic activity (M. lysodeikticus) was 23.0 unit/ml and 22.3 unit/ml and 22.0 unit/ml and the Specific activity (M. lysodeikticus) was 0.45 unit/mg and 0.42 unit/mg and 0.43 unit/mg.

B1: YT-3: ST3GalI crude enzyme solution from O. minuta strain into which OmPDI1 (onaP03606) had been introduced (protein, UniProt Q11201 1-340, looked up)
CMP-N-acetylneuraminate-beta-g …: MVTLRKRTLKVLTFLVLFIFLTSFFLNYSHTMVATTWFPKQMVLELSENLKRLIKHRPCTCTHCIGQRKLSAWFDERFNQTMQPLLTAQNALLEDDTYRWWLRLQREKKPNNLNDTIKELFRVVPGNVDPMLEKRSVGCRRCAVVGNSGNLRESSYGPEIDSHDFVLRMNKAPTAGFEADVGTKTTHHLVYPESFRELGDNVSMILVPFKTIDLEWVVSAITTGTISHTYIPVPAKIRVKQDKILIYHPAFIKYVFDNWLQGHGRYPSTGILSVIFSMHVCDEVDLYGFGADSKGNWHHYWENNPSAGAFRKTGVHDADFESNVTATLASINKIRIFKGR
For B1, the “difference in the expression levels (enzyme activity) compared with YT-2” value ([1]; 96 hours later, FIG. 15) was “approximately 3.4 times”, the Specific activity [1] was 3.36 pU/AU and the “elevation of the specific activity by introduction of OmPDI1” value ([1]; YT-3 versus YT-2) was “approximately 1.6 times”.

B2: YT-5: ST3GalI culture supernatant from strain coexpressing OmPDI1 and OmKar2 (protein, UniProt Q11201 1-340, looked up)
CMP-N-acetylneuraminate-beta-g …: MVTLRKRTLKVLTFLVLFIFLTSFFLNYSHTMVATTWFPKQMVLELSENLKRLIKHRPCTCTHCIGQRKLSAWFDERFNQTMQPLLTAQNALLEDDTYRWWLRLQREKKPNNLNDTIKELFRVVPGNVDPMLEKRSVGCRRCAVVGNSGNLRESSYGPEIDSHDFVLRMNKAPTAGFEADVGTKTTHHLVYPESFRELGDNVSMILVPFKTIDLEWVVSAITTGTISHTYIPVPAKIRVKQDKILIYHPAFIKYVFDNWLQGHGRYPSTGILSVIFSMHVCDEVDLYGFGADSKGNWHHYWENNPSAGAFRKTGVHDADFESNVTATLASINKIRIFKGR
B2 gave an Activity ([1]; listed as YT-5-1) of 1.29 mU/ml, an Activity ([1]; listed as YT-5-2) of 2.07 mU/ml and an Activity ([1]; listed as YT-5-3) of 1.86 mU/ml. It also gave an Activity ([1]; listed as YT-5-4) of 2.29 mU/ml, a Specific activity ([2]; listed as YT-5-1) of 10.7 pU/AU and a Specific activity ([2]; listed as YT-5-2) of 15.8 pU/AU. It also gave a Specific activity ([2]; listed as YT-5-3) of 12.3 pU/AU and a Specific activity ([2]; listed as YT-5-4) of 14.9 pU/AU.

B3: YT-2: ST3GalI crude enzyme solution from O. minuta strain with control plasmid pOMexGP1U, no OmPDI1 (protein, UniProt Q11201 1-340, looked up)
CMP-N-acetylneuraminate-beta-g …: MVTLRKRTLKVLTFLVLFIFLTSFFLNYSHTMVATTWFPKQMVLELSENLKRLIKHRPCTCTHCIGQRKLSAWFDERFNQTMQPLLTAQNALLEDDTYRWWLRLQREKKPNNLNDTIKELFRVVPGNVDPMLEKRSVGCRRCAVVGNSGNLRESSYGPEIDSHDFVLRMNKAPTAGFEADVGTKTTHHLVYPESFRELGDNVSMILVPFKTIDLEWVVSAITTGTISHTYIPVPAKIRVKQDKILIYHPAFIKYVFDNWLQGHGRYPSTGILSVIFSMHVCDEVDLYGFGADSKGNWHHYWENNPSAGAFRKTGVHDADFESNVTATLASINKIRIFKGR
Work on B3 yielded a Specific activity [1] of 2.13 pU/AU.

B4: YT-7: ST3GalI culture supernatant from strain coexpressing OmPDI1 and OmHSP104 (protein, UniProt Q11201 1-340, looked up)
CMP-N-acetylneuraminate-beta-g …: MVTLRKRTLKVLTFLVLFIFLTSFFLNYSHTMVATTWFPKQMVLELSENLKRLIKHRPCTCTHCIGQRKLSAWFDERFNQTMQPLLTAQNALLEDDTYRWWLRLQREKKPNNLNDTIKELFRVVPGNVDPMLEKRSVGCRRCAVVGNSGNLRESSYGPEIDSHDFVLRMNKAPTAGFEADVGTKTTHHLVYPESFRELGDNVSMILVPFKTIDLEWVVSAITTGTISHTYIPVPAKIRVKQDKILIYHPAFIKYVFDNWLQGHGRYPSTGILSVIFSMHVCDEVDLYGFGADSKGNWHHYWENNPSAGAFRKTGVHDADFESNVTATLASINKIRIFKGR
B4 gave an Activity ([1]; listed as YT-7-1) of 1.28 mU/ml, an Activity ([1]; listed as YT-7-2) of 2.98 mU/ml and an Activity ([1]; listed as YT-7-3) of 3.45 mU/ml. For the same molecule, the Activity ([1]; listed as YT-7-4) was 3.65 mU/ml, the Specific activity ([2]; listed as YT-7-1) was 11.4 pU/AU and the Specific activity ([2]; listed as YT-7-2) was 27.9 pU/AU. The Specific activity ([2]; listed as YT-7-3) was 42.5 pU/AU and the Specific activity ([2]; listed as YT-7-4) was 57.3 pU/AU.

Source: patent publication US8409825B2, “Method for high-level secretory production of protein” (National Institute of Advanced Industrial Science and …, priority 2007, dated 2013)
